Blank lines part the entries; values can stand above or below the binder they belong to.
B3: murine platelet glycoprotein Ib alpha (GPIb α) on mouse platelets (receptor, UniProt O35930 17-734, looked up)
chain: QHTCSISKVTSLLEVNCENKKLTALPADLPADTGILHLGENQLGTFSTASLVHFTHLTYLYLDRCELTSLQTNGKLIKLENLDLSHNNLKSLPSLGWALPALTTLDVSFNKLGSLSPGVLDGLSQLQELYLQNNDLKSLPPGLLLPTTKLKKLNLANNKLRELPSGLLDGLEDLDTLYLQRNWLRTIPKGFFGTLLLPFVFLHANSWYCDCEILYFRHWLQENANNVYLWKQGVDVKDTTPNVASVRCANLDNAPVYSYPGKGCPTSSGDTDYDDYDDIPDVPATRTEVKFSTNTKVHTTHWSLLAAAPSTSQDSQMISLPPTHKPTKKQSTFIHTQSPGFTTLPETMESNPTFYSLKLNTVLIPSPTTLEPTSTQATPEPNIQPMLTTSTLTTPEHSTTPVPTTTILTTPEHSTIPVPTTAILTTPKPSTIPVPTTATLTTLEPSTTPVPTTATLTTPEPSTTLVPTTATLTTPEHSTTPVPTTATLTTPEHSTTPVPTTATLTTPEPSTTLTNLVSTISPVLTTTLTTPESTPIETILEQFFTTELTLLPTLESTTTIIPEQNSFLNLPEVALVSSDTSESSPFLNSDFCCFLPLGFYVLGLLWLLFASVVLILLLTWTWHVTPHSLDMEQSAALATSTHTTSLEVQRARQVTMPRAWLLFLQGSLPTFRSSLFLWVRPNGRVGPLVAGRRPSALSQGRGQDLLGTVGIRYSGHSL
notes: whole, on cells; Native receptor on mouse platelets or whole blood; also called murine GPIb α; mGPIb-α

Legend:
[1] = target: T1, human platelet glycoprotein Ib alpha (GPIb α) on human platelets (human, UniProt P07359 17-652); assay: interaction times of VWF-A1-coated beads on surface-immobilized platelets, wall shear stress 1 dyn cm^-2
T1 construct: whole, on cells; Native receptor on washed platelets or whole blood; also called GPIb alpha; hGPIb-α
Experimental: (§1) The duration of these interactions are measured by recording images from a Nikon X60 DIC objective (oil immersion) viewed at a frame rate of 235 fps (Speed Vision Technologies, San Diego, Calif.) and subjected to wall shear stresses (WSS) ranging from 0.5 to 3.0 dyn cm⁻². […] The force acting on the i tether bond was calculated from force balance equations and koff plotted as a function of these forces. […] Because these platelets cannot activate, the kinetics should be reflective of GPIb α in the resting state.

[2] = target: T1, human platelet glycoprotein Ib alpha …; assay: interaction times of VWF-A1-coated beads on surface-immobilized platelets, wall shear stress 1 dyn cm^-2; 1309I>V + 1326H>R double mutant; 1 dyn cm^-2 wall shear stress
Experimental: as §1

[3] = target: T1, human platelet glycoprotein Ib alpha …; assay: human platelet attachment in flow to human VWF-A1 as a function of wall shear rate
[4] = target: T2, murine plasma VWF containing the 1326R>H mutation (VWF^1326R>H) (mouse, UniProt Q8CIZ8 764-2813); assay: statement in Example 1; binding reduced
T2 construct: also called R1326H mutant mouse VWF; mutant murine VWF

[5] = target: T3, mouse plasma VWF containing the majority of the human A1 domain (amino acids 1240P through 1481G of human VWF) (mouse VWF with human A1 domain, UniProt Q8CIZ8 764-2813, limits assumed); assay: parallel-plate flow system: WT mouse blood infused over surface-immobilized plasma VWF
T3 construct: Plasma VWF from homozygous VWF-HA1 mice; also called VWF-HA1; VWF HA1
T3 sequence (Q8CIZ8 other isoform, or with tags, fused parts or gaps limits assumed): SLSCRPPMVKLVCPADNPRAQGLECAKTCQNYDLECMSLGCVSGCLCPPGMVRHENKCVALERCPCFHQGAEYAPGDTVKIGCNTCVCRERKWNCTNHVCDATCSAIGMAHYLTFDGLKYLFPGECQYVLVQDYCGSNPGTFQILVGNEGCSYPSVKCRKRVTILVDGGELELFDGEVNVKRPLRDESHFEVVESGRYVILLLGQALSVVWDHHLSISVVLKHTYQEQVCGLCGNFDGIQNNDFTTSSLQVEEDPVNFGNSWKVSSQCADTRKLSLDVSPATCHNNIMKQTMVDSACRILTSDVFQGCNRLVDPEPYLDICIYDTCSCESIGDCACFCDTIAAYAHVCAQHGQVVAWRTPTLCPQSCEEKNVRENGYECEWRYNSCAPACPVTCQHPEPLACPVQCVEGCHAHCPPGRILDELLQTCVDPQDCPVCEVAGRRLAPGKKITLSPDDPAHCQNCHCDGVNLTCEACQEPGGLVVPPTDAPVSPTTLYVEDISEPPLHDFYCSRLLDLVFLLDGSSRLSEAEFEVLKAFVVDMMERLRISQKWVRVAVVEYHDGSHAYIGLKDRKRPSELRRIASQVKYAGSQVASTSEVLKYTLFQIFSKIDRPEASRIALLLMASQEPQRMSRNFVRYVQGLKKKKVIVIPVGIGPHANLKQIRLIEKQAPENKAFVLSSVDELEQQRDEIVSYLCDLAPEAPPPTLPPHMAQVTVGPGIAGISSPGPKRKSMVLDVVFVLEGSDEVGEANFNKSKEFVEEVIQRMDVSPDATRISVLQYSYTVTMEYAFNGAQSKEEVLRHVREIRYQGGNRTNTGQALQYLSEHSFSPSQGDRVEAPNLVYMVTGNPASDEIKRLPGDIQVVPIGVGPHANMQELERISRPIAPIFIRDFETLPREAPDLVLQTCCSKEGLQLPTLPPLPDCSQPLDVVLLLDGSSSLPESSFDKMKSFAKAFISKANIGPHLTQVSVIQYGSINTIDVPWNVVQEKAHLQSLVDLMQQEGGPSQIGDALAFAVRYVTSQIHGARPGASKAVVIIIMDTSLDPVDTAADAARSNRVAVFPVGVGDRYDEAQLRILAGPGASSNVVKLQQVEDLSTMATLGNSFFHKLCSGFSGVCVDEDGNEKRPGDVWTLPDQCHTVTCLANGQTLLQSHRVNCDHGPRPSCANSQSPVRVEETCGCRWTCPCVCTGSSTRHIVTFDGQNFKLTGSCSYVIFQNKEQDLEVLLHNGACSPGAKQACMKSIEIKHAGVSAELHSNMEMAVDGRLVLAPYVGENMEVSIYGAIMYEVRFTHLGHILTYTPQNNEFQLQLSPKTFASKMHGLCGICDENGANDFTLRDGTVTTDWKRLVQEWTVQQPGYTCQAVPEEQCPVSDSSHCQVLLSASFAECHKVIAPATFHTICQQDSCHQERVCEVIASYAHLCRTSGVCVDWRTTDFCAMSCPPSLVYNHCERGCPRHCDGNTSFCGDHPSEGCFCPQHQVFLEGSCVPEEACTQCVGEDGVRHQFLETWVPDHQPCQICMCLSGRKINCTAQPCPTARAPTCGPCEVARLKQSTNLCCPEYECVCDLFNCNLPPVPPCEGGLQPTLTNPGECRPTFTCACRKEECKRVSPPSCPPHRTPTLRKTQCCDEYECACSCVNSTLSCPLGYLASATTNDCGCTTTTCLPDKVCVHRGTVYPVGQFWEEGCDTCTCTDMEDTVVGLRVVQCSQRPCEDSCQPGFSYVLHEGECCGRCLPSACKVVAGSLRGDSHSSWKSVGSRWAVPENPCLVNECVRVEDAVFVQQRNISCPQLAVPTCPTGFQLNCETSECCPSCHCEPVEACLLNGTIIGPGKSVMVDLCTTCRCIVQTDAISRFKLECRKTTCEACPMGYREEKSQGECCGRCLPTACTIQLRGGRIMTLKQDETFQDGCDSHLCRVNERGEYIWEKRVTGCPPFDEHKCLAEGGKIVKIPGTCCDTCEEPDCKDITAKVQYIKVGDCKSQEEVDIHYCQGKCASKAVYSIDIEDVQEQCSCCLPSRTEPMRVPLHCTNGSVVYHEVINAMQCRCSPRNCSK

[6] = target: T4, murine plasma von Willebrand factor (VWF), wild type (mouse, UniProt Q8CIZ8 764-2813); assay: mouse whole blood perfused 4 min over surface-immobilized plasma VWF, 1600 s-1
T4 construct: Plasma-derived multimeric mouse VWF; also called mouse VWF; murine VWF
T4 sequence (Q8CIZ8 other isoform, or with tags, fused parts or gaps limits assumed): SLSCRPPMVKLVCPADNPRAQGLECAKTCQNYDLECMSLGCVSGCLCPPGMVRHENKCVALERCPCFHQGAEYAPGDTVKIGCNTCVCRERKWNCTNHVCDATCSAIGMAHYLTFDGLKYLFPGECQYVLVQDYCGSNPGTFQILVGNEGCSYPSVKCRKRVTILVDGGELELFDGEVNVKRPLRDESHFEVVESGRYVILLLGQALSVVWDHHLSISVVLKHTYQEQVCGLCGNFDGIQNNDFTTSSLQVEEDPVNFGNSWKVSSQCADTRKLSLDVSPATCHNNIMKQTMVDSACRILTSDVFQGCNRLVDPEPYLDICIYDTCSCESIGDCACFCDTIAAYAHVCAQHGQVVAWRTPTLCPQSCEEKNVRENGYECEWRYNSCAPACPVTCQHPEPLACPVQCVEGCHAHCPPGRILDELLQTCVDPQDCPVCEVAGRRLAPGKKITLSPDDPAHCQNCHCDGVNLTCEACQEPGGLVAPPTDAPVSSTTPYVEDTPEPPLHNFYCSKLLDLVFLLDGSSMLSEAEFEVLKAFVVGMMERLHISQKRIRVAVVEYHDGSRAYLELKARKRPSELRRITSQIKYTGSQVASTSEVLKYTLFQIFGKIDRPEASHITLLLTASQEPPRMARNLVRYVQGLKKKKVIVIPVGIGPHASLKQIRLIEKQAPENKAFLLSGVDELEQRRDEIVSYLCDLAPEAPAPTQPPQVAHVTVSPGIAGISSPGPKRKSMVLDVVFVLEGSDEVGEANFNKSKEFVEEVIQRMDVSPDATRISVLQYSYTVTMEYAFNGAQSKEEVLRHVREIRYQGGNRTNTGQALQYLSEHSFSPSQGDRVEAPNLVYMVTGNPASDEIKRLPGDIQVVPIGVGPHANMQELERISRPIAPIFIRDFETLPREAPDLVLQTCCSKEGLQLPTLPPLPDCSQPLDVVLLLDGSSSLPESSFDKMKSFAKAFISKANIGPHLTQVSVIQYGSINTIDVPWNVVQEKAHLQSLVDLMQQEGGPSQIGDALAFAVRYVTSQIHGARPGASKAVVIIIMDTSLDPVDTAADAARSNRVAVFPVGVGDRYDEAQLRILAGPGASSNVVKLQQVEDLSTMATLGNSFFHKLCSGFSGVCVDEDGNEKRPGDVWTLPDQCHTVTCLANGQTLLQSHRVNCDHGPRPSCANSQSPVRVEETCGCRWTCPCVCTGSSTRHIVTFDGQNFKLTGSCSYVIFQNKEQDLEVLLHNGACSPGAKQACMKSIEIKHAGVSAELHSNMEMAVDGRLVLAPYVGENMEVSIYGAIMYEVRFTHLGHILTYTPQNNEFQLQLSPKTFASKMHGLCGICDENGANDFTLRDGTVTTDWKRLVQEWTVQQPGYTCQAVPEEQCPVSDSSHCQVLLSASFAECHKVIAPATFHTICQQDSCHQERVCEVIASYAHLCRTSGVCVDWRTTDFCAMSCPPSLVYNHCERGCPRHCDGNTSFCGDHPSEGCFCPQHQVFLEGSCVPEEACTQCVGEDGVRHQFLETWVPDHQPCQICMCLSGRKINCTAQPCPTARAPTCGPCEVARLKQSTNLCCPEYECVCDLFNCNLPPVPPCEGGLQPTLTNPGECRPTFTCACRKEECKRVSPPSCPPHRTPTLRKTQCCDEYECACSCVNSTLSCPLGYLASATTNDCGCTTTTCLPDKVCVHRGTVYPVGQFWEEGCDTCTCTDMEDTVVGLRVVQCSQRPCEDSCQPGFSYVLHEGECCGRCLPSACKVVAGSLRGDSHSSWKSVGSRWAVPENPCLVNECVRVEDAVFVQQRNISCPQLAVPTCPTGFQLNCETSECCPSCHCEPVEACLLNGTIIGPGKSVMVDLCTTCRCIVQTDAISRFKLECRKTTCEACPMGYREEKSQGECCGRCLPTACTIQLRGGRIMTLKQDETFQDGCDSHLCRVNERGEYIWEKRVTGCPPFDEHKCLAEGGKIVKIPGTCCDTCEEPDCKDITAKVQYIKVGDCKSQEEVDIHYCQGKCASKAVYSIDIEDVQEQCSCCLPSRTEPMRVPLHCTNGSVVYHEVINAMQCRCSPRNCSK
Experimental: Ex vivo platelet adhesion studies. Experiments were performed in a parallel-plate flow chamber as previously described (Offermanns, S., et al., 2006). […] Subsequently, the plate was washed and non-specific interactions blocked by the addition of TBS containing 3% BSA, pH 7.4 (1 hour, 37° C.). Human or murine plasma obtained from heparinized whole blood was added and the plates placed at 37° C. for an additional 2 hours. […] The number of platelets attached per unit area (0.07 mm²) and translocation velocities were determined by off-line analysis (Image-Pro Plus, Media Cybernetics). For GPIb α inhibition studies, the function-blocking mAb 6D1 (20 μg/ml) or mAb SZ2 (20 μg/ml; Beckman Coulter, Brea, Calif.) was added to anticoagulated human blood for 30 minutes prior to use. Experiments were performed in triplicate on two separate days. An ELISA was used to ensure equivalent coating concentration of plasma and recombinant proteins (Denis, C. et al., 1998).

[7] = target: T1, human platelet glycoprotein Ib alpha …; assay: parallel-plate flow chamber: human whole blood perfused over the surface-immobilized recombinant A1 protein, shear rate 1600 s^-1, accumulated platelets counted
[8] = target: B3; assay: transient tethers of VWF-A1-coated beads on surface-immobilized murine platelets; shear stress 0.5 dyn cm-2; R2 0.96
Experimental: (§2) The force acting on the i tether bond was calculated from force balance equations and koff plotted as a function of these forces. […] Because these platelets cannot activate, the kinetics should be reflective of GPIb α in the resting state.
(§3) This antibody was made by immunizing Fischer 344 rats (3-4 months old) with recombinant WT protein. […] Spleens from animals with the highest antibody titers were harvested and splenocytes fused with Sp2/0 mouse myeloma cells (Kohler, et al., 1975).

[9] = target: B3; assay: transient tethers of VWF-A1-coated beads on surface-immobilized murine platelets; shear stress 2.0 dyn cm-2; R2 0.95
Experimental: as §2, §3

[10] = target: B3; assay: transient tethers of VWF-A1-coated beads on surface-immobilized murine platelets; shear stress 3.0 dyn cm-2; R2 0.98
Experimental: as §2, §3

[11] = target: T1, human platelet glycoprotein Ib alpha …; assay: human platelets (5x10^7/ml) perfused over coverslips coated with VWF-A1 (100 µg/ml), parallel plate flow chamber, 800 s-1
Experimental: (§4) The protein was subsequently used in a series of in vitro flow chamber assays to assess function. […] After 5 minutes of continuous flow, adherent platelets were quantified.

[12] = target: B3; assay: platelet adhesion to coated protein, wall shear rate 800 s^-1
Experimental: as §4
(§5) Subsequently, the ability of murine and human platelets to interact with this mutant protein substrate was evaluated at a wall shear rate of 800 s⁻¹.

[13] = target: B3; assay: platelet translocation on coated protein, wall shear rate 800 s^-1
Experimental: as §4, §5

[14] = target: T1, human platelet glycoprotein Ib alpha …; assay: human platelets perfused over immobilized mutant VWF-A1, wall shear rate 800 s-1
[15] = target: B3; assay: transient tethers of VWF-A1-coated beads on surface-immobilized murine platelets; shear stress 1.0 dyn cm-2; R2 0.95
Experimental: as §2, §3

[16] = target: B3; assay: transient tethers of VWF-A1-coated beads on surface-immobilized murine platelets; shear stress 2.0 dyn cm-2; R2 0.98
Experimental: as §2, §3

B2: recombinant human VWF-A1 containing 1309I>V and the type 2M mutation 1324G>S (ligand)
chain: QEPGGLVVPPTDAPVSPTTLYVEDISEPPLHDFYCSRLLDLVFLLDGSSRLSEAEFEVLKAFVVDMMERLRVSQKWVRVAVVEYHDSSHAYIGLKDRKRPSELRRIASQVKYAGSQVASTSEVLKYTLFQIFSKIDRPEASRIALLLMASQEPQRMSRNFVRYVQGLKKKKVIVIPVGIGPHANLKQIRLIEKQAPENKAFVLSSVDELEQQRDEIVSYLCDLAPEAPPPTLPPH
binding result [3]: no binding

Binder: B3
binding result [4]: binds
binding result [5]: no binding
binding result [6]: binds

B4: recombinant murine rVWF-A1 1326R>H (residues 1238 to 1471), Example 3 (ligand)
chain: QEPGGLVAPPTDAPVSSTTPYVEDTPEPPLHNFYCSKLLDLVFLLDGSSMLSEAEFEVLKAFVVGMMERLHISQKRIRVAVVEYHDGSHAYLELKARKRPSELRRITSQIKYTGSQVASTSEVLKYTLFQIFGKIDRPEASHITLLLTASQEPPRMARNLVRYVQGLKKKKVIVIPVGIGPHASLKQIRLIEKQAPENKAFLLSGVDELEQRRDEIVSYLCDLAPEAPAPTQPP
binding result [7]: binds

B5: recombinant wild-type murine VWF-A1 protein, His-tagged (amino acids 1233 to 1471, pQE9), Examples 1-2 (ligand)
chain: TCEACQEPGGLVAPPTDAPVSSTTPYVEDTPEPPLHNFYCSKLLDLVFLLDGSSMLSEAEFEVLKAFVVGMMERLHISQKRIRVAVVEYHDGSRAYLELKARKRPSELRRITSQIKYTGSQVASTSEVLKYTLFQIFGKIDRPEASHITLLLTASQEPPRMARNLVRYVQGLKKKKVIVIPVGIGPHASLKQIRLIEKQAPENKAFLLSGVDELEQRRDEIVSYLCDLAPEAPAPTQPP
notes: Disulfide C1272-C1458; also called mouse VWF-A1; M VWF-A1; not shown: 10 vector-derived N-terminal amino acids including 6xHis (pQE9)
koff [8]: 5.1 s⁻¹
koff [9]: 8.4 s⁻¹
koff [10]: 9.9 s⁻¹
binding result [11]: binds

Next, values leading:

fold reduction in koff versus the single 1326H>R mutant [1]: 2 fold
koff [2]: 8.5 s⁻¹
B1: recombinant human VWF-A1 containing 1309I>V and 1326H>R (ligand)
chain: QEPGGLVVPPTDAPVSPTTLYVEDISEPPLHDFYCSRLLDLVFLLDGSSRLSEAEFEVLKAFVVDMMERLRVSQKWVRVAVVEYHDGSRAYIGLKDRKRPSELRRIASQVKYAGSQVASTSEVLKYTLFQIFSKIDRPEASRIALLLMASQEPQRMSRNFVRYVQGLKKKKVIVIPVGIGPHANLKQIRLIEKQAPENKAFVLSSVDELEQQRDEIVSYLCDLAPEAPPPTLPPH

fold reduction in platelet adhesion versus WT mouse protein [12]: ~5 fold
fold increase in translocation velocity versus WT mouse protein [13]: ~7 fold
binding result [14]: binds
B6: recombinant murine VWF-A1 with histidine for arginine at position 1326 (Example 1) (ligand)
chain: TCEACQEPGGLVAPPTDAPVSSTTPYVEDTPEPPLHNFYCSKLLDLVFLLDGSSMLSEAEFEVLKAFVVGMMERLHISQKRIRVAVVEYHDGSHAYLELKARKRPSELRRITSQIKYTGSQVASTSEVLKYTLFQIFGKIDRPEASHITLLLTASQEPPRMARNLVRYVQGLKKKKVIVIPVGIGPHASLKQIRLIEKQAPENKAFLLSGVDELEQRRDEIVSYLCDLAPEAPAPTQPP
notes: also called mutated murine protein; not shown: 10 vector-derived N-terminal amino acids including 6xHis (pQE9)

koff [15]: 0.9 s⁻¹
koff [16]: 1.6 s⁻¹
koff [8]: 0.7 s⁻¹
B7: recombinant murine VWF-A1 containing the type 2B mutation I1309V (1309I>V) (ligand)
chain: TCEACQEPGGLVAPPTDAPVSSTTPYVEDTPEPPLHNFYCSKLLDLVFLLDGSSMLSEAEFEVLKAFVVGMMERLHVSQKRIRVAVVEYHDGSRAYLELKARKRPSELRRITSQIKYTGSQVASTSEVLKYTLFQIFGKIDRPEASHITLLLTASQEPPRMARNLVRYVQGLKKKKVIVIPVGIGPHASLKQIRLIEKQAPENKAFLLSGVDELEQRRDEIVSYLCDLAPEAPAPTQPP
notes: not shown: 10 vector-derived N-terminal amino acids including 6xHis (pQE9)

— patent US20130347134A1 (published 2013)
